According to article PMC13571933, “Active transport by cytoplasmic dynein sustains dendritic MAP2 localization in developing neurons” (The Journal of Biological Chemistry, 2026):
One block for each molecule: values may come before it.

How the values were obtained:
[1] = target: GFP-MAP2C ΔSP (human MAP2C lacking the serine/proline-rich region), expressed in HEK293 cells (human) (UniProt P11137); assay: co-IP; anti-His antibody on Dynabeads Protein G; 500 μg lysate of HEK293 cells co-expressing DHC1 and GFP-His-MAP2C; 50 mM Hepes pH 7.4, 100 mM NaCl, 2 mM EDTA, 0.5% Triton X-100; 1 h at 4 °C; blot with anti-DHC1 and anti-GFP, bands quantified with ImageJ
[2] = target: T1, microtubules (MTs), endogenous in cultured rat hippocampal neurons (rat (endogenous in hippocampal neurons), UniProt Q4QRB4 1-450, Representative alpha/beta heterodimer of a microtubule polymer (many copies). Endogenous neuronal microtubules are a mixture of tubulin isotypes. The alpha member is not told in the paper (Tuba1a assu)); assay: FRAP fitted with a reaction-diffusion simulation; as a3 but with 40 μM MT binding sites assumed; conditions: partners not purified
[3] = target: T1, microtubules (MTs), endogenous in …; assay: FRAP fitted with a reaction-diffusion simulation; FRAP of GFP-MAP2C in living neurons; KD from the best fit of a VCell simulation; 75 μM MT binding sites, 25 μM GFP-MAP2C and 5 μM endogenous MAP2 assumed; kon set, koff adjusted; conditions: partners not purified

co-immunoprecipitated DHC1 normalized to immunoprecipitated GFP-MAP2C, relative to WT (relative to the WT condition (set to 1)) [1]: 0.45
Molecule: cytoplasmic dynein heavy chain 1 (DHC1), expressed from a plasmid in HEK293 cells, Q14204 1-4646

Kd [2]: 1000 nM | Kd [3]: 4500 nM
B1: GFP-MAP2C (human MAP2C tagged with AcGFP and 6xHis, wild type), expressed in cultured rat hippocampal neurons (natural protein, UniProt P11137-2 1-471, looked up)
chain: MADERKDEAKAPHWTSAPLTEASAHSHPPEIKDQGGAGEGLVRSANGFPYREDEEGAFGEHGSQGTYSNTKENGINGELTSADRETAEEVSARIVQVVTAEAVAVLKGEQEKEAQHKDQTAALPLAAEETANLPPSPPPSPASEQTVTVEEAAGGESALAPSVFKQAKDKVSDGVTKSPEKRSSLPRPSSILPPRRGVSGDRDENSFSLNSSISSSARRTTRSEPIRRAGKSGTSTPTTPGSTAITPGTPPSYSSRTPGTPGTPSYPRTPHTPGTPKSAILVPSEKKVAIIRTPPKSPATPKQLRLINQPLPDLKNVKSKIGSTDNIKYQPKGGQVQIVTKKIDLSHVTSKCGSLKNIRHRPGGGRVKIESVKLDFKEKAQAKVGSLDNAHHVPGGGNVKIDSQKLNFREHAKARVDHGAEIITQSPGRSSVASPRRLSNVSSSGSINLLESPQLATLAEDVTAALAKQGL
notes: MAP2C, low molecular weight isoform of human microtubule-associated protein 2; the 471-amino-acid isoform; Same construct as m1, other host; also called wild-type GFP-MAP2C; WT; source: cultured rat hippocampal neurons, transfected, in living cells; not shown: AcGFP, N-terminal, kept
